According to IntAct's records for PubMed 36376753:

B1: SNF1-related protein kinase catalytic subunit alpha KIN10 (Arabidopsis thaliana (Mouse-ear cress)), Q38997 (parent)
chain: MDGSGTGSRSGVESILPNYKLGRTLGIGSFGRVKIAEHALTGHKVAIKILNRRKIKNMEMEEKVRREIKILRLFMHPHIIRLYEVIETPTDIYLVMEYVNSGELFDYIVEKGRLQEDEARNFFQQIISGVEYCHRNMVVHRDLKPENLLLDSKCNVKIADFGLSNIMRDGHFLKTSCGSPNYAAPEVISGKLYAGPEVDVWSCGVILYALLCGTLPFDDENIPNLFKKIKGGIYTLPSHLSPGARDLIPRMLVVDPMKRVTIPEIRQHPWFQAHLPRYLAVPPPDTVQQAKKIDEEILQEVINMGFDRNHLIESLRNRTQNDGTVTYYLILDNRFRASSGYLGAEFQETMEGTPRMHPAESVASPVSHRLPGLMEYQGVGLRSQYPVERKWALGLQSRAHPREIMTEVLKALQDLNVCWKKIGHYNMKCRWVPNSSADGMLSNSMHDNNYFGDESSIIENEAAVKSPNVVKFEIQLYKTRDDKYLLDLQRVQGPQFLFLDLCAAFLAQLRVL
partner: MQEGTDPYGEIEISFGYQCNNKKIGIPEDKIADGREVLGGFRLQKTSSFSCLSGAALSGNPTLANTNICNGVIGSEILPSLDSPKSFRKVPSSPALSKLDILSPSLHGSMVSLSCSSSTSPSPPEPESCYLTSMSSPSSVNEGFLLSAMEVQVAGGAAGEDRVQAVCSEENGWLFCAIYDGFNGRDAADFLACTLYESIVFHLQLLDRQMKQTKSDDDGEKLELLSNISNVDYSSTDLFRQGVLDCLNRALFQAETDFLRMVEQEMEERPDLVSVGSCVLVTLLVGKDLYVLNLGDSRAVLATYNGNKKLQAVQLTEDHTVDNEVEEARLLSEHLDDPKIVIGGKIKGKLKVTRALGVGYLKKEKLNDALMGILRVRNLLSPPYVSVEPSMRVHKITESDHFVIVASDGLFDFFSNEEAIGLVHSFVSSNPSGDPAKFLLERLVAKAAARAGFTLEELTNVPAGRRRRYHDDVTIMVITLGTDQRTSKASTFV
B2: SNF1-related protein kinase catalytic subunit alpha KIN10 (Arabidopsis thaliana (Mouse-ear cress)), Q38997 (parent)
chain: B1 chain
partner: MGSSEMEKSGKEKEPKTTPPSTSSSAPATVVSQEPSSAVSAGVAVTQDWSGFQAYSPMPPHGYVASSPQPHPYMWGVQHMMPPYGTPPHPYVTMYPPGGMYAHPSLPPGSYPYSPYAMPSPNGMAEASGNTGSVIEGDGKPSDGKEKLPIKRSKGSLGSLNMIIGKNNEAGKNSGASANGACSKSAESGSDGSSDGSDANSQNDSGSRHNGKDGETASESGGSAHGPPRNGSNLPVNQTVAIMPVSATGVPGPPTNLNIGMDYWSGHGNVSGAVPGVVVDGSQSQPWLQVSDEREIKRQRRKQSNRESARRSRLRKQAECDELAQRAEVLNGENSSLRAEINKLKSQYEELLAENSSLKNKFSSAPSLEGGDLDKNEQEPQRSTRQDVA
B3: SNF1-related protein kinase catalytic subunit alpha KIN10 (Arabidopsis thaliana (Mouse-ear cress)), Q38997 (parent)
chain: B1 chain
partner: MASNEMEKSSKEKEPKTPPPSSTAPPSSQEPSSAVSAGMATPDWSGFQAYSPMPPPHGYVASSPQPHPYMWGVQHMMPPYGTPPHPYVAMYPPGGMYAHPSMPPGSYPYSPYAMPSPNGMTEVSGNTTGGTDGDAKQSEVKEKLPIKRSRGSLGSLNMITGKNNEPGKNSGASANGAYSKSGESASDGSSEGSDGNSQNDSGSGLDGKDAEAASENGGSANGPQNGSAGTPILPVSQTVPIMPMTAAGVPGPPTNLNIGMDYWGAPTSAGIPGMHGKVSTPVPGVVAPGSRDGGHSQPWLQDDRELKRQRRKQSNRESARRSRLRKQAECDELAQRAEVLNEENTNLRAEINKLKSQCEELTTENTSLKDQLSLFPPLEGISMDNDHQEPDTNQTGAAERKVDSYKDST
B4: SNF1-related protein kinase catalytic subunit alpha KIN10 (Arabidopsis thaliana (Mouse-ear cress)), Q38997 (parent)
chain: B1 chain
partner: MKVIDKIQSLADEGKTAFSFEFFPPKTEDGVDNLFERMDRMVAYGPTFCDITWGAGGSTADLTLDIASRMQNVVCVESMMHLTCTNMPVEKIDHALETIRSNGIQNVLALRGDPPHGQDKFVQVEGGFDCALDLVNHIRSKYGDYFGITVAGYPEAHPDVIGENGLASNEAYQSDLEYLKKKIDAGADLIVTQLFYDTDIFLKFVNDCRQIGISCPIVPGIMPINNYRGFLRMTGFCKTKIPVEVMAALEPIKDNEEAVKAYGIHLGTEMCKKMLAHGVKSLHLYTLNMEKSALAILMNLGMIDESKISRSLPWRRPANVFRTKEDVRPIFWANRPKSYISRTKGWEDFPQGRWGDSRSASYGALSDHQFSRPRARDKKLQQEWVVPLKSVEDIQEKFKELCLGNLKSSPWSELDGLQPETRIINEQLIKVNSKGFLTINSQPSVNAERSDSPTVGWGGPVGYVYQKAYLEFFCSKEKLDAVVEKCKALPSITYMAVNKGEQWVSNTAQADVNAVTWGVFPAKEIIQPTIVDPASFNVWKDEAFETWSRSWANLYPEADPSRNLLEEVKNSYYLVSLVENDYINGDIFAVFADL

Variants of: B1
Details: with p2c40, Q9LUS8

effect of a mutation on the interaction	Variant
disrupting interaction strength	K48M

Variants of: B2
Details: with bzp68_arath BZIP68, Q84LG2

effect of a mutation on the interaction	Variant
disrupting interaction strength	K48M

Variants of: B3
Details: with bzp16_arath BZIP16, Q501B2

effect of a mutation on the interaction	Variant
disrupting interaction strength	K48M

Variants of: B4
Details: with mthr2_arath MTHFR2, O80585

effect of a mutation on the interaction	Variant
disrupting interaction strength	K48M
